# In patent US6103888A, “Mammalian cationic proteins having lipopolysaccharide binding and anti-coagulant activity” (priority 1999, dated 2000):
# B1: human CAP18: human form of CAP18, amino acid sequence SEQ ID NO:2 (protein)
# chain: MKTQRDGHSLGRWSLVLLLLGLVMPLAIIAQVLSYKEAVLRAIDGINQRSSDANLYRLLDLDPRPTMDGDPDTPKPVSFTVKETVCPRTTQQSPEDCDFKKDGLVKRCMGTVTLNQARGSFDISCDKDNKRFALLGDFFRKSKEKIGKEFKRIVQRIKDFLRNLVPRTES
# Tested on: cysteine protease
# Experiment: Cysteine protease activity of purified human CAP18
# Format: biochemical
molecule,measurement,value
B1,cysteine protease activity (in words),significant cysteine protease activity
